According to patent US6664048 (MAX PLANCK GESELLSCHAFT ZUR FURDERUNG DER WISSENSCHAFTEN E V, dated 2003):

Target: T1, LexA protein expressed from pBTM117c (UniProt P0A7C2 1-202)
T1 construct: range 1-220
T1 sequence (looked up): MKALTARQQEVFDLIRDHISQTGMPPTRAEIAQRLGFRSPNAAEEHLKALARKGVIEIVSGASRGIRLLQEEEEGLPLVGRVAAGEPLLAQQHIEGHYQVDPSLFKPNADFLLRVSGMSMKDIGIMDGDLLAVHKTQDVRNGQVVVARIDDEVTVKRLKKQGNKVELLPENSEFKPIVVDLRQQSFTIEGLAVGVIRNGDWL
Assay: yeast two-hybrid in L40cc, growth on SD-leu-trp-his and β-galactosidase membrane assay
Text: Detection of Clones Expressing Known Interacting Proteins From False Positives Using the Improved Two-hybrid System Pairs of the yeast two-hybrid plasmids pBTM117cSIM1 & pGAD427-ARNT, pBTM117c & pGAD427 and pBTM117c-HIP1 & pGAD427 were transformed into the yeast strain L40cc, and Trp+Leu+ transformants that contained at least one of each of the two plasmids were selected on SD-leu-trp plates. Two transformants from each transformation were investigated for the presence of protein-protein interactions by testing the ability of the yeast cells to grow on SD-leu-trp, SD-leu-trp-his, SD-leu+CAN and SD-trp+CHX plates and by the β-galactosidase membrane assay (Breeden and Nasmyth, 1985). […] After selection of the yeast strains harboring the different combinations of the two-hybrid plasmids on SD-leu+CAN and SD-trp+CHX the resulting strains were also analyzed by the β-galactosidase assay. After incubating the membrane containing all three strains on SD-trp+CHX medium only progeny of the yeast strain that originally harbored both the plasmids pBTM117c-HIP1 & pGAD427 yet which had lost the pGAD427 plasmid through counterselection turned blue after incubating in X-Gal solution. […]

B1: GAL4ad protein expressed from pGAD427 (other, yeast, UniProt P04386 768-881, looked up)
chain: ANFNQSGNIADSSLSFTFTNSSNGPNLITTQTNSQALSQPIASSNVHDNFMNNEITASKIDDGNNSKPLSPGWTDQTAYNAFGITTGMFNTTTMDDVYNYLFDDEDTPPNPKKE
notes: range 768-881
Question: Does B1 bind?
Answer: no binding
